Tested on: AC1254 (CCD1-BSRS1-AE713)
Sequence (chain, as listed by the source): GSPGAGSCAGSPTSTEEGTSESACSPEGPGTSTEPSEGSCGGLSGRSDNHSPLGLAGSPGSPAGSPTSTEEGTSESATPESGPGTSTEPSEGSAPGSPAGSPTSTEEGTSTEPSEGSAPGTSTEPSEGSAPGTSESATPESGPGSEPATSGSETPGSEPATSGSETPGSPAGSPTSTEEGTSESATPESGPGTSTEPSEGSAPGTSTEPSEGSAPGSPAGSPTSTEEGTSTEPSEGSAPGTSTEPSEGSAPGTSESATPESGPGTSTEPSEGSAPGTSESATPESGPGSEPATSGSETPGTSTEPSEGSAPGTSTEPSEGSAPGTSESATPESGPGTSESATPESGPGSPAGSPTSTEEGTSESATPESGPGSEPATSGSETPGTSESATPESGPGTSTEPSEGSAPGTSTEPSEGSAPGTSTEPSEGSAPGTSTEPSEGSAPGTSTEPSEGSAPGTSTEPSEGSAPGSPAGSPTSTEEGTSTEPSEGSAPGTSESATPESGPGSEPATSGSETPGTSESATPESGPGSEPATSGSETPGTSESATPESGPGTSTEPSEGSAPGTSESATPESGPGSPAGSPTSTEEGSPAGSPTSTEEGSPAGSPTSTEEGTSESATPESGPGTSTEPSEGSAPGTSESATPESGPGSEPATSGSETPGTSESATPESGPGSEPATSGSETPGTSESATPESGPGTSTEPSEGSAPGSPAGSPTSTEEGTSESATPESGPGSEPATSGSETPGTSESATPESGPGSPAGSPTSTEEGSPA

recombinant mouse MMP-2, sequence (chain, as listed by the source): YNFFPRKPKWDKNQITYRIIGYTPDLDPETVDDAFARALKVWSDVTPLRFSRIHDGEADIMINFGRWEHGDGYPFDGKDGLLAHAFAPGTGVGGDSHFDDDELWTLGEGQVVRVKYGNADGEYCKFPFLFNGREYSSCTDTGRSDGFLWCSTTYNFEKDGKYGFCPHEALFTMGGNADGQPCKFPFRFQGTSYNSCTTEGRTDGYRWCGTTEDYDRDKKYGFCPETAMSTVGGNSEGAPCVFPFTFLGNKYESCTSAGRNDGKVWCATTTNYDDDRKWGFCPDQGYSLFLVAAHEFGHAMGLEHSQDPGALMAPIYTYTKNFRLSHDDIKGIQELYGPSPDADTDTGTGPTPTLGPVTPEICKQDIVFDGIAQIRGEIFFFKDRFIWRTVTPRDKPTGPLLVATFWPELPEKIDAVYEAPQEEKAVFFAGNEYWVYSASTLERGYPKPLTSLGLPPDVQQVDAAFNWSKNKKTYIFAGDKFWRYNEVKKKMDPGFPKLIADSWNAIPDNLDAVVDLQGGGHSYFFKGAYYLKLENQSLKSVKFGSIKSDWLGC

Substance	proteolytic cleavage at the PCM (SDS-PAGE, C4 RP-HPLC); enzyme:substrate 1:12.5, 2 h, 37 C	proteolytic cleavage at the PCM (SDS-PAGE, C4 RP-HPLC); enzyme:substrate 1:680, 2 h, 37 C
recombinant human u-plasminogen activator (uPA)	all proteases tested here cleaved the construct as intended, with varying degree of catalytic efficiency	–
recombinant mouse MMP-2	–	all proteases tested here cleaved the construct as intended, with varying degree of catalytic efficiency
